Molecular target: T1, CD19 (UniProt P15391 20-556, limits assumed)
T1 sequence (looked up): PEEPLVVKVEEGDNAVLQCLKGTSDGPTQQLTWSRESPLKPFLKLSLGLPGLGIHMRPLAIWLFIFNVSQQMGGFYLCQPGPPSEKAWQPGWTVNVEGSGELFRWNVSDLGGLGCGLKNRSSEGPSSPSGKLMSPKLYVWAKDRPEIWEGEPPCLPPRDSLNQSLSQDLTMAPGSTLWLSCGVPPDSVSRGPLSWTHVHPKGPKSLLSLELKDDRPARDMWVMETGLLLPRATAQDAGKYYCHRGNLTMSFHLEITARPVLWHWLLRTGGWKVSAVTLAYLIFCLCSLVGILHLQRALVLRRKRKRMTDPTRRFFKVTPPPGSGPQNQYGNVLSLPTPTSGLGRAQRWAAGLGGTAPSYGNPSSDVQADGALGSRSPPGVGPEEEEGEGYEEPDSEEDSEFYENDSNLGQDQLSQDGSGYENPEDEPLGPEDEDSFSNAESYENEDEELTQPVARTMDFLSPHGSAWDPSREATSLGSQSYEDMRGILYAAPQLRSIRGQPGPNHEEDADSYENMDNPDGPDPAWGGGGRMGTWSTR
Experiment: cell-based or functional assay

B1: huB4-DGN462 (antibody, V domains shown)
VH: QVQLVQPGAEVVKPGASVKLSCKTSGYTFTSNWMHWVKQAPGQGLEWIGEIDPSDSYTNYNQNFQGKAKLTVDKSTSTAYMEVSSLRSDDTAVYYCARGSNPYYYAMDYWGQGTSVTVSS
VL: EIVLTQSPAIMSASPGERVTMTCSASSGVNYMHWYQQKPGTSPRRWIYDTSKLASGVPARFSGSGSGTDYSLTISSMEPEDAATYYCHQRGSYTFGGGTKLEIKR
With B1 the “median IC50 of cytotoxic activity (MTT assay, 72 h) in B cell lymphoma cell lines” value was 100 pM and the “median IC50 of cytotoxic activity (MTT assay, 72 h) in eight T cell-derived lymphomas with lower CD19 expression” value was 1750 pM.
